Assay results taken from the supplement of paper PMC9233669.
Variants at the floor of the assay were thinned out.

What was measured:
biotinyl-Phe-oxazolone = test: self-aminoacylation, catalytic enhancement (BFO) (fold over background); higher = more active; k-Seq, kA / k0A0; sequences stand for … in GGGAAUGGAUCCACAUCUACGAAUUC…UUCACUGCAGACUUGACGAAGCUG
Method in brief: (§1)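 Mutagenized RNA pools with a 21-nt variable region (0.43 μM) were reacted with each biotinyl-aminoacyl-oxazolone at 2–1250 μM for 90 minutes at room temperature, in 50 μL HEPES/NaCl/KCl/MgCl2/CaCl2 buffer containing 5% acetonitrile at pH 6.9–7.0. RNA captured on streptavidin was quantified by triplicate qPCR and by Illumina sequencing. The fraction reacted for each sequence was fit to a pseudo-first-order model with bootstrapping, and catalytic enhancement is the median kA divided by the uncatalyzed rate, taken as the low-activity peak of a bimodal Gaussian fit.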

biotinyl-Ile-oxazolone = test: self-aminoacylation, catalytic enhancement (BIO) (fold over background); higher = more active; k-Seq, kA / k0A0; sequences stand for … in GGGAAUGGAUCCACAUCUACGAAUUC…UUCACUGCAGACUUGACGAAGCUG
Method in brief: as §1

biotinyl-Met-oxazolone = test: self-aminoacylation, catalytic enhancement (BMO) (fold over background); higher = more active; k-Seq, kA / k0A0; sequences stand for … in GGGAAUGGAUCCACAUCUACGAAUUC…UUCACUGCAGACUUGACGAAGCUG
Method in brief: as §1

biotinyl-Val-oxazolone = test: self-aminoacylation, catalytic enhancement (BVO) (fold over background); higher = more active; k-Seq, kA / k0A0; sequences stand for … in GGGAAUGGAUCCACAUCUACGAAUUC…UUCACUGCAGACUUGACGAAGCUG
Method in brief: as §1

biotinyl-Leu-oxazolone = test: self-aminoacylation, catalytic enhancement (BLO) (fold over background); higher = more active; k-Seq, kA / k0A0; sequences stand for … in GGGAAUGGAUCCACAUCUACGAAUUC…UUCACUGCAGACUUGACGAAGCUG
Method in brief: as §1

biotinyl-Trp-oxazolone = test: self-aminoacylation, catalytic enhancement (BWO) (fold over background); higher = more active; k-Seq, kA / k0A0; sequences stand for … in GGGAAUGGAUCCACAUCUACGAAUUC…UUCACUGCAGACUUGACGAAGCUG
Method in brief: as §1

Sequence | self-aminoacylation (biotinyl-Phe-oxazolone) | self-aminoacylation (biotinyl-Ile-oxazolone) | self-aminoacylation (biotinyl-Met-oxazolone) | self-aminoacylation (biotinyl-Val-oxazolone) | self-aminoacylation (biotinyl-Leu-oxazolone) | self-aminoacylation (biotinyl-Trp-oxazolone)
AUUACCCUGGAUAUCGAGUGA [Fam2.1 aminoacylation ribozyme variant] | 67.3 | 4.43 | 10.5 | 4.88 | 11.1 | 12.9
AUUACCCUGGCCAUCGAGGGA [Fam2.1 aminoacylation ribozyme variant] | 0.483 | 1.9 | 1.01 | 2.96 | 1.47 | 1.31
AUUACCCUGGCCAUUGAGUGA [Fam2.1 aminoacylation ribozyme variant] | 4.63 | 2.13 | 3.72 | 2.41 | 4.53 | 4.73
AUUACCCUGGGCAGCGAGUGA [Fam2.1 aminoacylation ribozyme variant] | 34.6 | 5.87 | 9.21 | 5.64 | 8.78 | 9.57
AUUACCCUGGGCAUAGAGUGA [Fam2.1 aminoacylation ribozyme variant] | 71.5 | 4.98 | 10.1 | 4.72 | 12.6 | 12.6
AUUACCCUGGGCAUCGAGAGA [Fam2.1 aminoacylation ribozyme variant] | 0.489 | 0.802 | 0.914 | 0.74 | 0.749 | 0.642
AUUACCCUGGGCAUCGAGCGA [Fam2.1 aminoacylation ribozyme variant] | 7.68 | 1.26 | 1.08 | 1.48 | 0.813 | 1.43
AUUACCCUGGGCAUCGAGUGC [Fam2.1 aminoacylation ribozyme variant] | 0.527 | 1.1 | 1.24 | 0.979 | 0.992 | 1.31
AUUACCCUGGUAAUCGAGUGC [Fam2.1 aminoacylation ribozyme variant] | 1.38 | 0.957 | 1.12 | 0.801 | 1.04 | 0.656
AUUACCCUGGUAAUCGCGUGA [Fam2.1 aminoacylation ribozyme variant] | 58.9 | 3.14 | 7.29 | 3.66 | 8.44 | 7.81
AUUACCCUGGUCAAUGAGUGA [Fam2.1 aminoacylation ribozyme variant] | 30.9 | 3.46 | 7.16 | 3.7 | 6.7 | 8.83
AUUACCCUGGUCACCGAGCGA [Fam2.1 aminoacylation ribozyme variant] | 0.94 | 1.16 | 2.08 | 1.25 | 1.54 | 0.843
AUUACCCUGGUCACCGAGGGA [Fam2.1 aminoacylation ribozyme variant] | 0.887 | 1.67 | 2.27 | 2.39 | 1.83 | 3.76
AUUACCCUGGUCAGCGAGGGA [Fam2.1 aminoacylation ribozyme variant] | 0.743 | 1.54 | 1.34 | 1.19 | 0.891 | 2.06
AUUACCCUGGUCAGCUAGUGA [Fam2.1 aminoacylation ribozyme variant] | 6.76 | 2.53 | 3.32 | 2.34 | 3.32 | 3.12
AUUACCCUGGUCAUAAAGUGA [Fam2.1 aminoacylation ribozyme variant] | 43.9 | 4.88 | 11.1 | 5.16 | 10.3 | 13.4
AUUACCCUGGUCAUAGAGUAA [Fam2.1 aminoacylation ribozyme variant] | 0.983 | 1.44 | 1.17 | 1.29 | 1.37 | 0.757
AUUACCCUGGUCAUAGAGUGU [Fam2.1 aminoacylation ribozyme variant] | 13.5 | 2.08 | 4.07 | 2.58 | 3.73 | 4.8
AUUACCCUGGUCAUCAAUUGA [Fam2.1 aminoacylation ribozyme variant] | 0.681 | 0.823 | 0.948 | 0.92 | 0.963 | 0.826
AUUACCCUGGUCAUCAGGUGA [Fam2.1 aminoacylation ribozyme variant] | 29.8 | 2.6 | 5.07 | 3.03 | 4.45 | 5.53
AUUACCCUGGUCAUCCAGCGA [Fam2.1 aminoacylation ribozyme variant] | 10.1 | 2.7 | 3.38 | 2.68 | 4.08 | 3.97
AUUACCCUGGUCAUCCAGUGU [Fam2.1 aminoacylation ribozyme variant] | 7.23 | 1.95 | 3.14 | 1.81 | 3.15 | 3.1
AUUACCCUGGUCAUCCGGUGA [Fam2.1 aminoacylation ribozyme variant] | 52.5 | 6.78 | 8.7 | 6.25 | 9.32 | 9.05
AUUACCCUGGUCAUCCUGUGA [Fam2.1 aminoacylation ribozyme variant] | 2.81 | 1.51 | 1.39 | 1.07 | 1.71 | 1.52
AUUACCCUGGUCAUCGACAGA [Fam2.1 aminoacylation ribozyme variant] | 0.705 | 1.04 | 0.716 | 0.774 | 0.738 | 0.676
AUUACCCUGGUCAUCGACUUA [Fam2.1 aminoacylation ribozyme variant] | 0.425 | 0.596 | 0.636 | 0.818 | 0.544 | 0.414

Sequence | self-aminoacylation (biotinyl-Phe-oxazolone) | self-aminoacylation (biotinyl-Ile-oxazolone) | self-aminoacylation (biotinyl-Met-oxazolone) | self-aminoacylation (biotinyl-Val-oxazolone) | self-aminoacylation (biotinyl-Leu-oxazolone) | self-aminoacylation (biotinyl-Trp-oxazolone)
AUUACCCUGGUCAUCGAGCGC [Fam2.1 aminoacylation ribozyme variant] | 1.86 | 2.09 | 2.53 | 2.29 | 2.33 | 1.16
AUUACCCUGGUCAUCGAGCGU [Fam2.1 aminoacylation ribozyme variant] | 4.33 | 2.77 | 4.25 | 2.36 | 4.95 | 4.83
AUUACCCUGGUCAUCGAGUGU [Fam2.1 aminoacylation ribozyme variant] | 785 | 31.7 | 108 | 37.4 | 105 | 104
AUUACCCUGGUCAUCGAUUAA [Fam2.1 aminoacylation ribozyme variant] | 0.508 | 1.02 | 0.935 | 1.1 | 0.933 | 0.619
AUUACCCUGGUCAUCGAUUGG [Fam2.1 aminoacylation ribozyme variant] | 0.798 | 0.665 | 0.715 | 0.856 | 0.713 | 1.3
AUUACCCUGGUCAUCGCGUAA [Fam2.1 aminoacylation ribozyme variant] | 28.4 | 2.73 | 4.04 | 3.48 | 2.97 | 5.11
AUUACCCUGGUCAUCGGAUGA [Fam2.1 aminoacylation ribozyme variant] | 0.931 | 1.4 | 1.16 | 1.36 | 1.65 | 1.62
AUUACCCUGGUCAUCGGGCGA [Fam2.1 aminoacylation ribozyme variant] | 20.1 | 4.15 | 8.99 | 4.62 | 10 | 8.14
AUUACCCUGGUCAUCGGGGGA [Fam2.1 aminoacylation ribozyme variant] | 44.2 | 4.75 | 7.12 | 5.36 | 9.21 | 10.7
AUUACCCUGGUCAUCGUGUAA [Fam2.1 aminoacylation ribozyme variant] | 0.847 | 1.13 | 1.07 | 1.18 | 1.26 | 0.503
AUUACCCUGGUCAUCGUGUGC [Fam2.1 aminoacylation ribozyme variant] | 1.25 | 0.992 | 0.938 | 0.881 | 1.12 | 0.349
AUUACCCUGGUCAUCGUUUGA [Fam2.1 aminoacylation ribozyme variant] | 0.693 | 0.923 | 0.71 | 0.821 | 0.963 | 0.734
AUUACCCUGGUCAUCUACUGA [Fam2.1 aminoacylation ribozyme variant] | 0.799 | 0.925 | 0.663 | 0.856 | 0.676 | 0.358
AUUACCCUGGUCAUCUAGGGA [Fam2.1 aminoacylation ribozyme variant] | 1.72 | 1.36 | 1.17 | 1.32 | 1.47 | 0.956
AUUACCCUGGUCAUCUAGUGG [Fam2.1 aminoacylation ribozyme variant] | 2.7 | 1.3 | 2.14 | 1.48 | 2.32 | 2.08
AUUACCCUGGUCAUCUAUUGA [Fam2.1 aminoacylation ribozyme variant] | 0.868 | 1.08 | 0.879 | 1.11 | 0.839 | 0.789
AUUACCCUGGUCAUGGAGCGA [Fam2.1 aminoacylation ribozyme variant] | 3.2 | 1.27 | 1.59 | 1.29 | 1.72 | 1.32
AUUACCCUGGUCAUGGCGUGA [Fam2.1 aminoacylation ribozyme variant] | 125 | 7 | 16.2 | 10.3 | 17.4 | 19.4
AUUACCCUGGUCAUUGUGUGA [Fam2.1 aminoacylation ribozyme variant] | 8.81 | 1.46 | 2.59 | 1.49 | 2.23 | 3.23
AUUACCCUGGUCCUCCAGUGA [Fam2.1 aminoacylation ribozyme variant] | 49.6 | 4.44 | 7.44 | 3.79 | 8.6 | 9.12
AUUACCCUGGUCCUUGAGUGA [Fam2.1 aminoacylation ribozyme variant] | 56.2 | 3.86 | 8.05 | 3.86 | 8.35 | 9.98
AUUACCCUGGUCGUCGAGUGU [Fam2.1 aminoacylation ribozyme variant] | 2.78 | 1.07 | 1.39 | 1.2 | 1.08 | 1.15
AUUACCCUGGUCUUCGAGCGA [Fam2.1 aminoacylation ribozyme variant] | 0.753 | 0.901 | 1.09 | 1.23 | 1.11 | 1.16
AUUACCCUGGUCUUCGAGGGA [Fam2.1 aminoacylation ribozyme variant] | 0.74 | 1.5 | 1.15 | 1.35 | 1.54 | 1.31
AUUACCCUGGUCUUCGAGUGU [Fam2.1 aminoacylation ribozyme variant] | 1.76 | 1.52 | 1.96 | 1.57 | 2.03 | 2.23
